Data: patent US20240091361A1, “T CELL RECEPTORS TARGETING RAS MUTATIONS AND USES THEREOF” (MEMORIAL SLOAN-KETTERING CANCER CENTER, priority 2021, published 2024)

Assays:
[1] = biological target: T1, GEM (also listed as SEQ ID NOs 82, 106, 130, 141) peptide on HLA-A*11:01 (human); assay: cytokine release
T1 peptide: AVFGAGGVGK

[2] = biological target: T2, KRAS wild type (10-mer) peptide on HLA-A*11:01 (human); assay: cytokine release
T2 peptide: VVVGAGGVGK

[3] = biological target: T3, KRAS G12D (10-mer; the same sequence in NRAS G12D and HRAS G12D) peptide on HLA-A*11:01 (human); assay: multimer staining
T3 peptide: VVVGADGVGK

[4] = biological target: T4, peptide-pulsed HLA-A*11:01+ COS-7 target cells (Homo sapiens, UniProt P04439, A114D/D185E/E176A/F33Y/L180Q/S129P/T187R); assay: Cross-reactivity: IFN-γ ELISA after coculture of RAS TCR-T cells with peptide-pulsed HLA-A*11:01+ COS-7 cells; format: cell-based; details: peptides of Tables 7-11 at 1 μM, E:T 1:1, 24 h; background threshold 50 pg/mL
T4 construct: Target COS-7 cells were electroporated with mRNA encoding full-length human HLA*11:01; expressed in transfected cells; host or cells: COS-7 cells electroporated with mRNA
Method: Next, studies were conducted to determine the cross-reactivity potential of RAS-specific TCRs. Individual TCR peptide motifs were scanned against the human proteome to identify potential cross-reactive sequences. Target COS-7 cells were electroporated with mRNA encoding full-length human HLA*11:01 and incubated at 37 degrees overnight to allow HLA-A*11:01 protein expression. […]. The cells were then pulsed with an individual peptide corresponding to its RAS-specific TCR (see Tables 7-11) at a concentration of 1 μM; finally, wild-type (WT) and mutated RAS peptides were included as functional controls. RAS TCR-T cells, expressing individual RAS TCRs 1-5, were added at an E:T ratio of 1:1 and incubated at 37 degrees for 24 h. Supernatants were harvested from coculture wells to perform an ELISA assay to determine levels of IFN-γ production.

| Molecule | reactivity (IFN-γ) to alternative human peptide sequences possessing the recognition motif [4] | further results |
| --- | --- | --- |
| TCR 1 (TCR, V domains shown) Valpha: GDSVTQMEGPVTLSEEAFLTINCTYTATGYPSLFWYVQYPGEGLQLLLKATKADDKGSNKGFEATYRKETTSFHLEKGSVQVSDSAVYFCALSDRVGGARLMFGDGTQLVVKP Vbeta: EADIYQTPRYLVIGTGKKITLECSQTMGHDKMYWYQQDPGMELHLIHYSYGVNSTEKGDLSSESTVSRIRTEHFPLTLESARPSHTSQYLCASSEGLYNEQFFGPGTRLTVL | – | binding result [1]: no recognition; binding result [2]: no recognition; binding result [3]: recognises |
| TCR 1: T cell receptor targeting RAS G12D peptide; α chain SEQ ID NO: 12, β chain SEQ ID NO: 13 (protein, listed as Homo sapiens, Description of sequence: Full alpha-chain; Description of sequence: Full beta-chain) alpha: MNYSPGLVSLILLLLGRTRGDSVTQMEGPVTLSEEAFLTINCTYTATGYPSLFWYVQYPGEGLQLLLKATKADDKGSNKGFEATYRKETTSFHLEKGSVQVSDSAVYFCALSDRVGGARLMFGDGTQLVVKPNIQNPDPAVYQLRDSKSSDKSVCLFTDFDSQTNVSQSKDSDVYITDKTVLDMRSMDFKSNSAVAWSNKSDFACANAFNNSIIPEDTFFPSPESSCDVKLVEKSFETDTNLNFQNLSVIGFRILLLKVAGFNLLMTLRLWSS beta: MTIRLLCYMGFYFLGAGLMEADIYQTPRYLVIGTGKKITLECSQTMGHDKMYWYQQDPGMELHLIHYSYGVNSTEKGDLSSESTVSRIRTEHFPLTLESARPSHTSQYLCASSEGLYNEQFFGPGTRLTVLEDLKNVFPPEVAVFEPSEAEISHTQKATLVCLATGFYPDHVELSWWVNGKEVHSGVSTDPQPLKEQPALNDSRYCLSSRLRVSATFWQNPRNHFRCQVQFYGLSENDEWTQDRAKPVTQIVSAEAWGRADCGFTSESYQQGVLSATILYEILLGKATLYAVLVSALVLMAMVKRKDSRG | did not exhibit reactivity | – |
| TCR 2: T cell receptor targeting RAS G12D peptide; α chain SEQ ID NO: 22, β chain SEQ ID NO: 23 (protein, listed as Homo sapiens, Description of sequence: Full alpha-chain; Description of sequence: Full beta-chain) alpha: MTRVSLLWAVVVSTCLESGMAQTVTQSQPEMSVQEAETVTLSCTYDTSENNYYLFWYKQPPSRQMILVIRQEAYKQQNATENRFSVNFQKAAKSFSLKISDSQLGDTAMYFCAFMYPSQGGSEKLVFGKGMKLTVNPNIQNPDPAVYQLRDSKSSDKSVCLFTDFDSQTNVSQSKDSDVYITDKTVLDMRSMDFKSNSAVAWSNKSDFACANAFNNSIIPEDTFFPSPESSCDVKLVEKSFETDTNLNFQNLSVIGFRILLLKVAGFNLLMTLRLWSS beta: MGPGLLCWVLLCLLGAGSVETGVTQSPTHLIKTRGQQVTLRCSSQSGHNTVSWYQQALGQGPQFIFQYYREEENGRGNFPPRFSGLQFPNYSSELNVNALELDDSALYLCASSSPGFRSYGYTFGSGTRLTVVEDLNKVFPPEVAVFEPSEAEISHTQKATLVCLATGFFPDHVELSWWVNGKEVHSGVSTDPQPLKEQPALNDSRYCLSSRLRVSATFWQNPRNHFRCQVQFYGLSENDEWTQDRAKPVTQIVSAEAWGRADCGFTSVSYQQGVLSATILYEILLGKATLYAVLVSALVLMAMVKRKDF | did not exhibit reactivity | – |
| TCR 4: T cell receptor targeting RAS G12D peptide; α chain SEQ ID NO: 41, β chain SEQ ID NO: 42 (protein, listed as Homo sapiens, Description of sequence: Full alpha-chain; Description of sequence: Full beta-chain) alpha: MMKSLRVLLVILWLQLSWVWSQQKEVEQDPGPLSVPEGAIVSLNCTYSNSAFQYFMWYRQYSRKGPELLMYTYSSGNKEDGRFTAQVDKSSKYISLFIRDSQPSDSATYLCAMGALNSGAGSYQLTFGKGTKLSVIPNIQNPDPAVYQLRDSKSSDKSVCLFTDFDSQTNVSQSKDSDVYITDKTVLDMRSMDFKSNSAVAWSNKSDFACANAFNNSIIPEDTFFPSPESSCDVKLVEKSFETDTNLNFQNLSVIGFRILLLKVAGFNLLMTLRLWSS beta: MGSRLLCWVLLCLLGAGPVKAGVTQTPRYLIKTRGQQVTLSCSPISGHRSVSWYQQTPGQGLQFLFEYFSETQRNKGNFPGRFSGRQFSNSRSEMNVSTLELGDSALYLCASSLSSGTGTEAFFGQGTRLTVVEDLNKVFPPEVAVFEPSEAEISHTQKATLVCLATGFFPDHVELSWWVNGKEVHSGVSTDPQPLKEQPALNDSRYCLSSRLRVSATFWQNPRNHFRCQVQFYGLSENDEWTQDRAKPVTQIVSAEAWGRADCGFTSVSYQQGVLSATILYEILLGKATLYAVLVSALVLMAMVKRKDF | did not exhibit reactivity | – |
| TCR 5: T cell receptor targeting RAS G12D peptide; α chain SEQ ID NO: 50, β chain SEQ ID NO: 51 (protein, listed as Homo sapiens, Description of sequence: Full alpha-chain; Description of sequence: Full beta-chain) alpha: MKTFAGFSFLFLWLQLDCMSRGEDVEQSLFLSVREGDSSVINCTYTDSSSTYLYWYKQEPGAGLQLLTYIFSNMDMKQDQRLTVLLNKKDKHLSLRIADTQTGDSAIYFCAERDAGNNRKLIWGLGTSLAVNPNIQNPDPAVYQLRDSKSSDKSVCLFTDFDSQTNVSQSKDSDVYITDKTVLDMRSMDFKSNSAVAWSNKSDFACANAFNNSIIPEDTFFPSPESSCDVKLVEKSFETDTNLNFQNLSVIGFRILLLKVAGFNLLMTLRLWSS beta: MGTRLLCWVVLGFLGTDHTGAGVSQSPRYKVAKRGQDVALRCDPISGHVSLFWYQQALGQGPEFLTYFQNEAQLDKSGLPSDRFFAERPEGSVSTLKIQRTQQEDSAVYLCASSLEGGDTQYFGPGTRLTVLEDLKNVFPPEVAVFEPSEAEISHTQKATLVCLATGFYPDHVELSWWVNGKEVHSGVSTDPQPLKEQPALNDSRYCLSSRLRVSATFWQNPRNHFRCQVQFYGLSENDEWTQDRAKPVTQIVSAEAWGRADCGFTSESYQQGVLSATILYEILLGKATLYAVLVSALVLMAMVKRKDSRG | did not exhibit reactivity | – |
| TCR 3: T cell receptor targeting RAS G12D peptide; α chain SEQ ID NO: 31, β chain SEQ ID NO: 32 (protein, listed as Homo sapiens, Description of sequence: Full alpha-chain; Description of sequence: Full beta-chain) alpha: MACPGFLWALVISTCLEFSMAQTVTQSQPEMSVQEAETVTLSCTYDTSESDYYLFWYKQPPSRQMILVIRQEAYKQQNATENRFSVNFQKAAKSFSLKISDSQLGDAAMYFCAYRSDGGATNKLIFGTGTLLAVQPNIQNPDPAVYQLRDSKSSDKSVCLFTDFDSQTNVSQSKDSDVYITDKTVLDMRSMDFKSNSAVAWSNKSDFACANAFNNSIIPEDTFFPSPESSCDVKLVEKSFETDTNLNFQNLSVIGFRILLLKVAGFNLLMTLRLWSS beta: MGPQLLGYVVLCLLGAGPLEAQVTQNPRYLITVTGKKLTVTCSQNMNHEYMSWYRQDPGLGLRQIYYSMNVEVTDKGDVPEGYKVSRKEKRNFPLILESPSPNQTSLYFCASSLGAGGYNSPLHFGNGTRLTVTEDLNKVFPPEVAVFEPSEAEISHTQKATLVCLATGFFPDHVELSWWVNGKEVHSGVSTDPQPLKEQPALNDSRYCLSSRLRVSATFWQNPRNHFRCQVQFYGLSENDEWTQDRAKPVTQIVSAEAWGRADCGFTSVSYQQGVLSATILYEILLGKATLYAVLVSALVLMAMVKRKDF | low level reactivity to a single alternative peptide | – |
